From the supplement of paper PMC10266784

B1: library; numbered along this chain (parent)
chain: MAAAAAAAAEQQSSNGPVKKSMREKAVERRSVNKEHNSNFKAGYIPIDEDRLHKTGLRGRKGNLAICVIILLFILAVINLIITLVIWAVIRIGPNGCDSMEFHESGLLRFKQVSDMGVIHPLYKSTVGGRRNENLVITGNNQPIVFQQGTTKLSVENNKTSITSDIGMQFFDPRTQNILFSTDYETHEFHLPSGVKSLNVQKASTERITSNATSDLNIKVDGRAIVRGNEGVFIMGKTIEFHMGGNMELKAENSIILNGSVMVSTTRLPSSSSGDQLGSGDWVRYKLCMCADGTLFKVQVTSQNMGCQISDNPCGNTH

Variants of: B1
Assay: SGCB cell-surface expression functional score (HA stain, bin4 vs bin1, normalised to synonymous) (log10 ratio); higher = more cell-surface SGCB (functional)
How it was run: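 The functional score is a log ratio of variant frequency in the highest versus the lowest intensity bin, expressed as a median over codons and duplicate transductions. Codon-saturation libraries of HA-tagged, YFP-fused human beta-sarcoglycan were transduced by lentivirus at MOI <0.1 into HEK293 cells stably expressing alpha-, gamma- and delta-sarcoglycan, and the cells were stained on ice with Alexa Fluor 647 anti-HA, fixed and sorted into four 5% intensity bins before amplicon sequencing. Synonymous variants were scaled to mean 0, SD 0.5 within each section.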

| Variant | SGCB cell-surface expression functional score (log10) |
| --- | --- |
| L80G | 0.19 |
| N316V | -0.19 |
| C290R | -0.56 |
| P94Q | 0.21 |
| Q303G | 0.2 |
| N39K | 0.08 |
| I70K | 0.19 |
| V136W | 0.57 |
| E188I | -1.93 |
| P17Y | 0.31 |
| H242I | 0.92 |
| L72R | -0.09 |
| E185F | -0.44 |
| S154M | 0.54 |
| Q12Y | -0.05 |
| S13G | -0.08 |
| E35W | 0.28 |
| T138W | 0.68 |
| V136E | 0.05 |
| C67G | 0.18 |
| E185A | 0.2 |

| Variant | SGCB cell-surface expression functional score (log10) |
| --- | --- |
| I45M | 0.43 |
| G236P | -1.06 |
| I144A | -0.98 |
| S197L | 0.24 |
| I119Q | -1.26 |
| Q176W | -0.21 |
| I92M | -0.21 |
| G62M | 0.13 |
| K202F | -1.04 |
| L257W | 0.82 |
| A5N | -0.07 |
| K111M | -0.31 |
| V200W | -1.75 |
| D292A | -0.14 |
| V226M | 0.21 |
| T151A | -0.08 |
| A212L | -0.95 |
| I69Q | 0.03 |
| I74N | 0.04 |
| P269S | 0.18 |
| T238L | 0.67 |

| Variant | SGCB cell-surface expression functional score (log10) |
| --- | --- |
| G222V | -0.07 |
| I255M | 0.52 |
| E188A | -1.13 |
| N141T | -0.25 |
| S14R | 0.04 |
| Q201A | 0.62 |
| Q276G | 0.24 |
| K152R | -0.22 |
| K219M | 0.67 |
| G96R | -1.51 |
| R130K | -0.01 |
| R284L | -0.57 |
| F233Y | 0.56 |
| D48K | -0.09 |
| V283K | 0.04 |
| S99Q | -2.34 |
| A203W | -0.3 |
| L84Y | -0.41 |
| S271H | -0.19 |
| S125Q | -0.7 |
| R207Q | -0.74 |

| Variant | SGCB cell-surface expression functional score (log10) |
| --- | --- |
| R284C | 0.03 |
| G128F | 0.6 |
| A42W | 0.29 |
| V32F | -0.5 |
| V261N | -0.63 |
| F40G | -0.49 |
| Q147T | -0.47 |
| M289V | -0.24 |
| H53Q | 0.39 |
| S161G | 0.01 |
| V68K | 0 |
| G231A | -0.01 |
| N211V | -0.91 |
| P313S | -0.17 |
| G93A | -0.97 |
| S114E | -0.49 |
| I137N | -1.72 |
| F40V | 0.27 |
| T209C | -1.07 |
| G139S | 0.06 |
| S197P | -2.03 |
